The source of these data is patent US20200140566A1 (CLEVELAND CLINIC FOUNDATION, published 2020).

Residue numbers refer to the chain shown, from its start. Values joined by “and” are separate entries in the source; they are usually repeats but may differ in a detail not shown here. Equal values may be shown once.

As usually defined, the koff is the first-order rate constant of dissociation. The term kon denotes the rate constant with which the complex forms. A low value points to slow association. As usually defined, the EC50 is the concentration at which the effect is half-maximal. A high value points to lower potency in that assay.

Assay [1] concerns the target T1, CD6 on Jurkat cells (human, UniProt P30203 18-668).
T1 construct: whole, on cells; the target is inferred from the antibodies' specificity
T1 sequence (looked up): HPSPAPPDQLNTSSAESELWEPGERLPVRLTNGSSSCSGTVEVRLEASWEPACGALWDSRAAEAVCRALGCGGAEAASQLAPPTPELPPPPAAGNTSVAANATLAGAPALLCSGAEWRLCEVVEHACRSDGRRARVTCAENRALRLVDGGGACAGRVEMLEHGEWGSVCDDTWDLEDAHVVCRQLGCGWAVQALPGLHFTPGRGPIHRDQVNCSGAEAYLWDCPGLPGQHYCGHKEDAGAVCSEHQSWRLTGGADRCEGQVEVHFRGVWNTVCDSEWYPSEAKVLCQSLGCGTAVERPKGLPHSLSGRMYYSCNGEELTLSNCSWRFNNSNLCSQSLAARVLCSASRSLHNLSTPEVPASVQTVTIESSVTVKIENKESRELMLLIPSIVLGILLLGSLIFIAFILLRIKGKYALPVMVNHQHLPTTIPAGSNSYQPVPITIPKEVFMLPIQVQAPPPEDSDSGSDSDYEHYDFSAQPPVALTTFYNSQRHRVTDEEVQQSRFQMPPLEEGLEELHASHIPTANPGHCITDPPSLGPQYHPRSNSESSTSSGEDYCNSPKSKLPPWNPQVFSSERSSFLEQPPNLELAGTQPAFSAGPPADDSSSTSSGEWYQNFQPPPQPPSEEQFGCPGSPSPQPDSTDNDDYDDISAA
As to the kind of experiment: flow cytometry on Jurkat cells, antibody at 16 pM. How it is done: (§1) Flow cytometric analysis was performed using the purified antibodies. Jurkat cells were grown to 70-80% confluence and harvested by centrifuge. About 4×10⁵ cells per well were washed with PBS twice. 200 μl of the culture supernatant was added to the cells and incubated at room temperature for 1 hour. After washing with PBS, antibody was added to the cells for the detection of bound humanized IgG. After 30 minutes incubation, the cells were washed twice with PBS and resuspended in PBS. Cells were analyzed for IgG binding by using FACS Calibur (BD Bioscience, San Jose, Calif.) and Flowjo software. The IC₅₀ was analyzed by GraphPad Prism.
(§2) The FACS binding assay was also performed for validation of the Jurkat cell/humanized antibody interaction. Three humanized antibodies show almost equal Jurkat cell binding activity as parent antibody.
For orientation: A flow cytometer gives signals particle by particle.

Assay [2] deals with T2, rhCD6-Fc (human, UniProt P30203 25-398, limits assumed).
T2 construct: also called rhCD6-Fc chimera; antigen rhCD6-Fc; not shown: Fc part
T2 sequence (looked up): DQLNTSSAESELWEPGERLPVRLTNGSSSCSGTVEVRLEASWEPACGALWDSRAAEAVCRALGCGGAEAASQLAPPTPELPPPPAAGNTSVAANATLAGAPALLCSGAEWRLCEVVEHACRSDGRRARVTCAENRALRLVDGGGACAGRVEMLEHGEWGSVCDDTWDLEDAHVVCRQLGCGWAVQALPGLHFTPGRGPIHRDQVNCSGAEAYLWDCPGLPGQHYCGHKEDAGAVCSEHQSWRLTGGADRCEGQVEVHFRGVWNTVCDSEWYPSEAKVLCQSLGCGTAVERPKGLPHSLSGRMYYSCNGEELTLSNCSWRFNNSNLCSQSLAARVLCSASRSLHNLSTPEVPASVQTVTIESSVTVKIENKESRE
Briefly: SPR (BIAcore T200, 25 C), rhCD6-Fc immobilised on CM5, IgG injected, apparent KD = kd/ka. How it is done:
(§3) IgG antibodies were injected through flow cells at a flow rate of 30 μl/min with the concentration ranging from 0.11-27 nM (three-fold serial dilution). Association time was 700 s followed by 3600 s dissociation. At the end of each cycle, sensor surface was regenerated with 10 mM Glycine-HCl, pH 2.0 (100 μl/min, 12 s for 3 times). Responses of reference flow cell and buffer-only injection were double-subtracted from rhCD6-Fcflow cell during each antigen injection cycle. The data of dissociation (kd) and association (ka) rate constants were obtained by fitting binding data to 1:1 binding model using Biacore T200 evaluation software. The apparent equilibrium dissociation constants (KD) were calculated from the ratio of kd over ka.
(§4) Affinity analysis of antigen-antibody interaction. Binding data of each antibody was processed and fitted to 1:1 binding model using Biacore T200 evaluation software. All experiment data could be perfectly fitted to the model (FIG. 14).

In assay [3] the target is T1, CD6 on Jurkat cells. As to the kind of experiment: flow cytometry on Jurkat cells, antibody at 80 pM. How it is done:
as §1, §2

The target in assay [4] is T2, rhCD6-Fc. Briefly: SPR (BIAcore T200, 25 C), rhCD6-Fc immobilised on CM5, IgG injected 0.11-27 nM, 1:1 fit; column head misprinted 'Kd (1/Ms)'. How it is done:
as §3, §4

The target of assay [5] is T1, CD6 on Jurkat cells. As to the kind of experiment: flow cytometry on Jurkat cells, antibody at 0 pM (background). How it is done:
as §1, §2

Assay [6] concerns the target T1, CD6 on Jurkat cells. As to the kind of experiment: flow cytometry on Jurkat cells, antibody at 3.2 pM. How it is done: as §1, §2
Assay [7] deals with T1, CD6 on Jurkat cells. As to the kind of experiment: flow cytometry on Jurkat cells, antibody at 400 pM. How it is done: as §1, §2
Assay [8] addresses T1, CD6 on Jurkat cells. As to the kind of experiment: flow cytometry on Jurkat cells, antibody at 2000 pM. How it is done: as §1, §2
The target of assay [9] is T1, CD6 on Jurkat cells. As to the kind of experiment: flow cytometry titration of direct binding on Jurkat cells (the filing calls the midpoint IC50), GraphPad Prism. How it is done: as §1, §2
In assay [10] the target is T1, CD6 on Jurkat cells. As to the kind of experiment: flow cytometry on Jurkat cells, antibody at 10000 pM. How it is done: as §1, §2
Assay [11] has as its target T2, rhCD6-Fc. As to the kind of experiment: SPR (BIAcore T200), Fab-SASA from culture medium captured on immobilised BSA, rhCD6-Fc injected, 1:1 fit of off-rate. How it is done: BSA was immobilized onto the sensor chip using amine coupling method. The selected Fab-SASA clones secreted to the culture medium were injected and captured by BSA via SASA (capture phase). After equilibration, antigen rhCD6-Fc was injected for 240 seconds (association phase) followed by the injection of running buffer for 720 seconds (dissociation phase). The surface was regenerated before the injection of another three Fab-SASA clones. The process was repeated until all antibodies were analyzed. Responses of reference flow cell were subtracted from those of Fab-SASA flow cells during each cycle. The binding curves of Fab-SASA clones were aligned at the start of association and normalized at 20 seconds after the stop of antigen injection using the BIAcore T200 evaluation software in order to display a more visualized comparison of antibodies. The off-rates of Fab-SASA clones were obtained from fitting the experimental data locally to 1:1 binding model. The antibodies were ranked by their dissociation rate constants Single cycle kinetics measurement was performed to verify the affinity ranking result. The selected Fab-SASA clones secreted to the culture medium were injected and captured by BSA via SASA (capture phase). After equilibration, a series of concentrations of antigen rhCD6-Fc (1, 3, 9, 27 and 81 nM) were injected for 500 seconds (association phase) followed by the injection of running buffer for 3000 seconds (dissociation phase). The surface was regenerated before another injection of Fab-SASA clones. Responses of reference flow cell and buffer-only injection were double-subtracted from those of Fab-SASA flow cells during each antigen injection cycle. The binding data were fitted to 1:1 binding model using the BIAcore T200 evaluation software.
Five back-mutation clones were constructed based on sequence of Fab2 and homology modeling. Each of DNA sequence encoding the five Fab fragments was inserted into pFASEBA vector for screening of the lead antibodies. The five clones along with Fab2 were screened against rhCD6-Fc for binding test and subsequent off-rate analysis by the BIAcore T200. Three clones were selected for IgG production and characterization due to the low dissociation rate using the BIAcore T200 evaluation software (Table 3).

B1: Humanized IgG6 (from Fab6) (antibody, V domains shown)
VH: QVQLQESGPGLVKPSETLSLTCTVSGFSLSRYSVHWIRQPPGKGLEWIGLIWGGGFTDYNSALKSRVTISKDNSKNQVSLKLSSVTAADTAVYYCAREGVAYWGQGTLVTVSS
VL: DVVMTQSPLSLPVTLGQPASISCKSSQSLLNSDGRTYLNWFQQRPGQSPRRLIYLVSKLDSGVPDRFSGSGSGTDFTLKISRVEAEDVGVYYCWQGTHFPFTFGPGTKVDIKR
notes: Human IgG1 / kappa
In the case of B1, the MFI was 7.9 in the assay with CD6 on Jurkat cells [1]; 14.8 with CD6 on Jurkat cells [3]; 5.45 in the assay with CD6 on Jurkat cells [5]; 6.68 with CD6 on Jurkat cells [6]; 35.3 with CD6 on Jurkat cells [7]; 44.1 with CD6 on Jurkat cells [8]. The molecule further showed an MFI with CD6 on Jurkat cells [10] of 45.2. For the same molecule, the Kd with rhCD6-Fc [2] was 0.032 nM. Moreover, the koff with rhCD6-Fc [4] worked out at 2.1e-05 s⁻¹. Moreover, the kon with rhCD6-Fc [4] turned out to be 650000 M⁻¹ s⁻¹. The same molecule had a half-maximal effective concentration (EC50) with CD6 on Jurkat cells [9] of 0.197 nM.

B2: Fab2 (Fab, V domains shown)
VH: B1 VH with I37V, I48L, V67L
VL: DVVMTQSPLSLPVTLGQPASISCKSSQSLLNSDGRTYLNWFQQRPGQSPRRLIYLVSKLDSGVPDRFSGSGSGTDFTLKISRVEAEDVGVYYCWQGTHFPFTFGPGTKVDIK
notes: Tested as Fab-SASA secreted into culture medium (pFASEBA vector); also called back-mutation 2; Fab2 clone from CDR grafting
On to B2, for which, in the assay with rhCD6-Fc [11], the off-rate (koff) was 2.1e-05 s⁻¹.

B3: Fab7 (Fab, V domains shown)
VH: B1 VH with F27G, L29I, I37V, I48L, V67L, K71V, N73T, V78F
VL: B2 VL
notes: Tested as Fab-SASA secreted into culture medium; also called back-mutation 7
As to B3, in the assay with rhCD6-Fc [11], the off-rate (koff) was 0.00089 s⁻¹.

B4: Humanized IgG2 (from Fab2) (antibody, V domains shown)
VH: B1 VH with I37V, I48L, V67L
VL: B1 VL
notes: VH2-hIgG1CH and VL-hIgKCL (human IgG1 / kappa)
B4: the MFI came out at 6.8 with CD6 on Jurkat cells [1]; 10.9 in the assay with CD6 on Jurkat cells [3]; 5.45 with CD6 on Jurkat cells [5]; 6.18 with CD6 on Jurkat cells [6]; 31 with CD6 on Jurkat cells [7]; 45 in the assay with CD6 on Jurkat cells [8]. Moreover, the MFI with CD6 on Jurkat cells [10] was 42.7. The Kd in the assay with rhCD6-Fc [2] was 0.042 nM. In the assay with rhCD6-Fc [4], this molecule yielded a koff of 1.3e-05 s⁻¹. For the same molecule, the kon with rhCD6-Fc [4] is 320000 M⁻¹ s⁻¹. For the same molecule, a half-maximal effect with CD6 on Jurkat cells [9] (EC50) was put at 0.275 nM.

B5: Fab6 (Fab, V domains shown)
VH: B1 VH
VL: B2 VL
notes: Tested as Fab-SASA secreted into culture medium; also called back-mutation 6
Take B5: the koff with rhCD6-Fc [11] came out at 3.1e-05 s⁻¹.

B6: Humanized IgG4 (from Fab4) (antibody, V domains shown)
VH: B1 VH with L29I
VL: B1 VL
notes: VH4-hIgG1CH and VL-hIgKCL (human IgG1 / kappa; 'IgG4' is the clone number, not the isotype)
For B6, the MFI with CD6 on Jurkat cells [1] was found to be 7.65; with CD6 on Jurkat cells [3], 15; with CD6 on Jurkat cells [5], 5.45; with CD6 on Jurkat cells [6], 6.45; in the assay with CD6 on Jurkat cells [7] it was 37; in the assay with CD6 on Jurkat cells [8], 44.4. The molecule also registered an MFI with CD6 on Jurkat cells [10] of 46.7. Moreover, the Kd with rhCD6-Fc [2] stood at 0.038 nM. The molecule also came in with a dissociation rate constant (koff) with rhCD6-Fc [4] of 1.3e-05 s⁻¹. For the same molecule, the kon with rhCD6-Fc [4] is 350000 M⁻¹ s⁻¹. This molecule registered a concentration for a half-maximal effect (EC50) in the assay with CD6 on Jurkat cells [9] of 0.185 nM.

B7: Fab4 (Fab, V domains shown)
VH: B1 VH with L29I
VL: B2 VL
notes: Tested as Fab-SASA secreted into culture medium; also called back-mutation 4
As to B7, the off-rate (koff) in the assay with rhCD6-Fc [11] worked out at 1.9e-05 s⁻¹.

B8: Fab5 (Fab, V domains shown)
VH: B1 VH with F27G, I37V, I48L, V67L, K71V, N73T, V78F
VL: B2 VL
notes: Tested as Fab-SASA secreted into culture medium; also called Fab5 R; back-mutation 5
For B8, the koff with rhCD6-Fc [11] is 0.00053 s⁻¹ and 0.00056 s⁻¹.
